Legend:
GAPDH [1] = target: T1, GAPDH (Homo sapiens, UniProt P04406 1-335); assay: EMSA; 10 mM Tris-HCl pH 8.0, 50 mM KCl, 2 mM DTT, 0.5 mM EDTA, 0.1 mg/ml BSA, 0.1 mg/ml heparin, room temperature; FP 30 min with 2 nM RNA; EMSA 20 min plus 10% glycerol and RiboLock, 6% native gel at 4°C; mass photometry without BSA/heparin; conditions: protein: recombinant, tags: N-terminal His, chain copies: 4, single strand
GAPDH [2] = target: T1, GAPDH; assay: fluorescence polarization; 10 mM Tris-HCl pH 8.0, 50 mM KCl, 2 mM DTT, 0.5 mM EDTA, 0.1 mg/ml BSA, 0.1 mg/ml heparin, room temperature; FP 30 min with 2 nM RNA; EMSA 20 min plus 10% glycerol and RiboLock, 6% native gel at 4°C; mass photometry without BSA/heparin; conditions: protein: recombinant, tags: N-terminal His, chain copies: 4, single strand
GAPDH [3] = target: T1, GAPDH; assay: EMSA, possibly a misprint for nM; 10 mM Tris-HCl pH 8.0, 50 mM KCl, 2 mM DTT, 0.5 mM EDTA, 0.1 mg/ml BSA, 0.1 mg/ml heparin, room temperature; FP 30 min with 2 nM RNA; EMSA 20 min plus 10% glycerol and RiboLock, 6% native gel at 4°C; mass photometry without BSA/heparin; conditions: protein: recombinant; tags: N-terminal His; chain copies: 4; label: fluorescein (Roche RNA labeling mix, internal); single strand

T1 sequence (P04406 whole entry): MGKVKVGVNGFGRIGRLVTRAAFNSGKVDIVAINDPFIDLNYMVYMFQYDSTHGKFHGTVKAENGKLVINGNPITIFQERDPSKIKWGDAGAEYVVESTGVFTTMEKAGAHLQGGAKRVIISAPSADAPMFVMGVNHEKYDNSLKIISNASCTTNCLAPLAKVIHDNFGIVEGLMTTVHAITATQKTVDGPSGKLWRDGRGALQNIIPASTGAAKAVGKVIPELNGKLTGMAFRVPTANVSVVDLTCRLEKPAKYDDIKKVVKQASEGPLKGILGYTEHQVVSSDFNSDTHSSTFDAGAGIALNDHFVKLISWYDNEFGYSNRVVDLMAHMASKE

GUGAUUAUUUAUUAUUUAUUUAUUAUUUAUUUAUUUAG (ssRNA) [TNFα-ARE38]
Kd (GAPDH [1]): 217 nM | Kd (GAPDH [2]): 167 nM

UGGCCAAUGCCCUGGCUCACAAAUACCACUG (ssRNA) [Rβ31]
Kd (GAPDH [2]; S17 legend says FITC-labeled RNA): 1310 nM

B1: GAPDH 5'UTR (ssRNA)
RNA: GGGCUCUCUGCUCCUCCUGUUCGACAGUCAGCCGCAUCUUCUUUUGCGUCGCCAGCCGAGCCACAUCGCUCAGACACC
Kd (GAPDH [1]; label: fluorescein (Roche RNA labeling mix, internal)): 400 nM

B2: RPL13a 5'UTR (ssRNA)
RNA: GGGCCUCCUUUUCCAAGCGGCUGCCGAAGAUGGCGGAGGUGCAGGUCCUGGUGCUUGAUGGUCGAGGCCAUCUCCUGGGCCGCCUGGCGGCCAUCGUGGCUAAACAG
Kd (GAPDH [3]): 887000 nM

Reference: paper PMC12582121, “RNA binding of GAPDH controls transcript stability and protein translation in acute myeloid leukemia”
